Measured values: publication PMC6388921, “An alkaline active feruloyl-CoA synthetase from soil metagenome as a potential key enzyme for lignin valorization strategies” (PLoS ONE, 2019)

Target: the molecule itself
Experiment: dynamic light scattering; FCS1 at 1 mg/mL in 20 mM Tris-HCl pH 7; hydrodynamic radius converted to mass assuming a spherical molecule

B1: feruloyl-CoA synthetase FCS1 (enzyme, UniProt A0A2P1BT06 1-707, looked up)
chain: MGERRFSNQQIDRLLRPKSVAVIGASDRKGALGATLLNNLVQYEFSGDIYPVNPKRDELLGLKVYHEVAELPEGIDCAVLAIPRPFVIDTVRQLAQRGCGAVVIYSAGFSEAGEEGMKDQLELAAIAAEYGMVIEGPNCLGCTNYVERVPLTFVETNMQTPPKGTRAVGIASQSGALAAVLATALHPRGLYVSSSVSTGNEAASGVEDYVEWLVDDEDTHVIAMYVESLRRPKAFIAAARRAHAAGKPIVMLHPGKSNKAQESAATHTGAMAGDYALMKTKLAREGVIFADTLEELADITEIALRCRALPGANMAVLGESGALRGLAFDIAEDIGLDLIHLDDDNSPALRAILPDFVPVSNPTDITALGLSEPEIYTKVLTALLEDERIGSVVASIIQSDPITSGIKFPHIIKVLDGGTFAKPLVFAGVDEGATVPKEYIDGLRKVGIPWFPSTERAYRAIARLADLSKRDLADNSGDPIVVPGLDAVSGVVPEYKAKELLRPLGIAFPPSQFAANAEAAAAAARAIGYPVVMKAQAAALGHKSDAGGVILNLKTDDEVRDAFARIYGNVEAYDRSIALDGVLIEKMGKMGTEMIVGAKNDPQWGPVVLAGFGGVTAEILKDVKLFTPEMDAAAVQRGLLELKQAPILKGYRGAPALDVAALAELIVQIGRVMAGNPSIREIDLNPVIIHPAGEGVAALDALMLVER
notes: feruloyl-CoA synthetase FCS1 from the metagenome of a lignin-degrading microbial consortium from sugarcane plantation soil; GenBank MG214406; codon-optimised, synthesised gene; predicted molecular mass 74.9 kDa; No tag cleavage is described
With B1 the “stoichiometry N” value was 2.
